Measurements reported in US20170037110A1 (IMMATICS BIOTECHNOLOGIES, published 2017).

What follows are binders tested against T1, HLA-A*02:01 (human) (assay: UV peptide exchange ELISA).
T1 construct: monomers captured on streptavidin plates; also called MHC class I
Text: Candidate peptides for T cell based therapies according to the present invention were further tested for their MHC binding capacity (affinity). The individual peptide-MHC complexes were produced by UV-ligand exchange, where a UV-sensitive peptide is cleaved upon UV-irradiation, and exchanged with the peptide of interest as analyzed. Only peptide candidates that can effectively bind and stabilize the peptide-receptive MHC molecules prevent dissociation of the MHC complexes. To determine the yield of the exchange reaction, an ELISA was performed based on the detection of the light chain (p2m) of stabilized MHC complexes.
96 well MAXISorp plates (NUNC) were coated over night with 2 μg/ml streptavidin in PBS at room temperature, washed 4× and blocked for 1 h at 37° C. in 2% BSA containing blocking buffer. […] Peptide-MHC monomers of the UV-exchange reaction were diluted 100 fold in blocking buffer. Samples were incubated for 1h at 37° C., washed four times, incubated with 2 μg/ml HRP conjugated anti-p2m for 1h at 37° C., washed again and detected with TMB solution that is stopped with […]. Absorption was measured at 450 nm.

Binder | peptide exchange yield [%]
KLFDVDEDGYI | 50 to 75
GLVGNPLPSV | ≥ 75
FLFDEEIEQI | 50 to 75
ALLEGVNTV | 50 to 75
YQQAQVPSV | 50 to 75
ALDEMGDLLQL | 50 to 75
ALLPQPKNLTV | 50 to 75
SLLDEIRAV | 50 to 75
FTLGNVVGMYL | ≥ 75
YLNHLEPPV | 50 to 75
KVLEVTEEFGV | 50 to 75
KILDADIQL | ≥ 75
NLPEYLPFV | 50 to 75
RLQETLSAA | 50 to 75
LLLPLQILL | 50 to 75
VLYSYTIITV | 20 to 50
LLDSASAGLYL | 50 to 75
ALAQYLITA | 50 to 75
YLFENISQL | 50 to 75
GAAKDLPGV | 20 to 50
YLMEGSYNKVFL | 20 to 50
YLLPEEYTSTL | ≥ 75
ALTEIAFVV | ≥ 75
KVLNELYTV | 50 to 75
FQIDPHSGLVTV | 20 to 50
LLWAGTAFQV | 50 to 75
MLLEAPGIFL | 50 to 75
FGLDLVTEL | 50 to 75
YLMDINGKMWL | 50 to 75
FLIDDKGYTL | 20 to 50
